Measurements taken from patent US20250011363A1, “OPTIMIZED SHORTENED PEPTIDE THAT BINDS TO ACETYLCHOLINE RECEPTOR, AND USE THEREOF” (SKINMED CO., LTD., priority 2021, published 2025).

target: acetylcholine receptor; assay: SPR, receptor immobilized, peptide 10 uM

Binding affinity (RU)	Binder
31 RU	RFHGR [5mer-1098]
31 RU	KISGK [5mer-1090]
14 RU	RTTER [5mer-1085]
148 RU	RRWLYK [6mer-1-136]
148 RU	KRQVQR [6mer-1-140]
19 RU	RIWDR [5mer-1086]
13 RU	RPNVR [5mer-1081]
141 RU	RKVFQR [6mer-1-145]
15 RU	RYSMK [5mer-1094]
122 RU	KRRFLR [6mer-1-139]
28 RU	KPDIR [5mer-1097]
21 RU	RTHDR [5mer-1084]
31 RU	KFSVR [5mer-1083]
15 RU	RPTDK [5mer-1096]
123 RU	KKVYYK [6mer-1-142]
29 RU	KTHHR [5mer-1089]
32 RU	REEDK [5mer-1093]
11 RU	RACFR [5mer-1082]
124 RU	RKVVTR [6mer-1-138]
121 RU	RRLFRR [6mer-1-137]
148 RU	RKRYTR [6mer-1-144]
145 RU	KRGVLR [6mer-1-143]
25 RU	RYTHK [5mer-1080]
27 RU	KAEKR [5mer-1095]
12 RU	KPMVK [5mer-1092]
16 RU	KAKKK [5mer-1088]
29 RU	KTEHR [5mer-1091]
141 RU	RKLYQK [6mer-1-141]
31 RU	KYTGR [5mer-1079]
11 RU	KKKKR [5mer-1087]

Continued, binder first:

Binder	Binding affinity (RU)
KEAWK [5mer-1078]	19 RU
RETMK [5mer-798]	13 RU
KKPHR [5mer-793]	19 RU
KNWVR [5mer-796]	17 RU
KANAR [5mer-782]	32 RU
KPTIR [5mer-785]	31 RU
RDSHK [5mer-780]	27 RU
RTKKR [5mer-795]	20 RU
KFWIR [5mer-789]	12 RU
KEAPK [5mer-794]	20 RU
KADMK [5mer-1077]	12 RU
KYPPR [5mer-779]	21 RU
KYHGK [5mer-788]	16 RU
RACEK [5mer-784]	21 RU
RCDFR [5mer-776]	17 RU
RFNKK [5mer-786]	29 RU
KTKMR [5mer-791]	26 RU
KCKVR [5mer-783]	29 RU
KDNIR [5mer-787]	17 RU
KFEKK [5mer-1076]	21 RU
REAGK [5mer-790]	33 RU
RMEKK [5mer-792]	31 RU
KKDHK [5mer-778]	24 RU
RIDPR [5mer-781]	28 RU
RYNWK [5mer-777]	28 RU
RKHIK [5mer-1075]	26 RU
KETHK [5mer-797]	15 RU
